This is an account of results in article PMC11853025, “Determining Ligand Binding and Specificity Within the β2-Integrin Family with a Novel Assay Platform” (Biomolecules, 2025).

What all share (conditions): both partners purified
Experiment [1] addresses T1, C3dg (UniProt P01024 955-1303).
T1 construct: Held on the chip through the thioester-mediated deposit of its parent C3b; also called C3dg fragment; source: made on the SPR chip by co-injecting CR1 and factor I
In words: SPR; C3b deposited on a CM5 chip (amine-coupled seed, then convertase-mediated deposition to about 5000 RU), iC3b and C3dg made from it on the chip; αI domains injected as dilution series, 120 s; Biacore T200, 25 °C; HBST (10 mM HEPES, 150 mM NaCl, 0.005% Tween-20, pH 7.4) with 1 mM MgCl2; Langmuir 1:1 fit, KD calculated.

Experiment [2] has as its target T2, C3b (UniProt P01024 23-667; P01024 749-1663).
T2 construct: A seed of about 100 RU C3b was amine-coupled; further C3b was deposited via its thioester moiety to about 5000 RU; also called C3b fragment; C3-derived opsonin; source: bought: Complement Technology (C3b, C3); deposited on the SPR chip from C3 by the FB/FD convertase
Described as above.

For experiment [3], the target named is T3, ICAM-2 (recombinant, Sino Biological 10332-H03H) (UniProt P13598 25-223).
T3 construct: ICAM-2, bought recombinant protein; also called intercellular adhesion molecule 2; source: bought: Sino Biological
T3 sequence (looked up): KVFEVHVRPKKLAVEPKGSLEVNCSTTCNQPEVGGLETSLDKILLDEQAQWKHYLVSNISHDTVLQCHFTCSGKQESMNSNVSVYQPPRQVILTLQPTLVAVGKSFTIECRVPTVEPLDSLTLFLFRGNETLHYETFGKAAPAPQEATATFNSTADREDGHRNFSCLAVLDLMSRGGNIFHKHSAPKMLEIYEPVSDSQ
In words: SPR; ICAM-1, ICAM-2, ICAM-3 amine-coupled to a CM5 chip; αI domains injected; 25 °C; HBST with 1 mM MgCl2.

For experiment [4], the target named is T4, ICAM-1 (recombinant, Sino Biological 10346-H03H) (UniProt P05362 28-480).
T4 construct: ICAM-1, bought recombinant protein; also called intercellular adhesion molecule 1; source: bought: Sino Biological
The description is as above.

T4 sequence (P05362 28-480): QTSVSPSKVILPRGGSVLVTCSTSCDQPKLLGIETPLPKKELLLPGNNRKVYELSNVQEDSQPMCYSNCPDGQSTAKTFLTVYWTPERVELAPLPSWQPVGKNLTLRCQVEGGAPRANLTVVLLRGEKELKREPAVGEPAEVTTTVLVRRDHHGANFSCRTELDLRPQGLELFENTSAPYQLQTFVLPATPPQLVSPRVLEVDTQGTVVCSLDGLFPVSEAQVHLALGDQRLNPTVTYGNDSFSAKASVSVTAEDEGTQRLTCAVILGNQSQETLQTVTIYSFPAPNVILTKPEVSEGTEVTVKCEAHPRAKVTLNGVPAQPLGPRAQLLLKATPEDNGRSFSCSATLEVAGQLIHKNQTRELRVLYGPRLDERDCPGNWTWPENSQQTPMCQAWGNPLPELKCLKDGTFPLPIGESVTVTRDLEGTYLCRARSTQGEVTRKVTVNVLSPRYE

B1: CR3 αMI domain, high-affinity (HA) variant p.I332G (domain or fragment)
chain: QEDSDIAFLIDGSGSIIPHDFRRMKEFVSTVMEQLKKSKTLFSLMQYSEEFRIHFTFKEFQNNPNPRSLVKPITQLLGRTHTATGIRKVVRELFNITNGARKNAFKILVVITDGEKFGDPLGYEDVIPEADREGVIRYVIGVGDAFRSEKSRQELNTIASKPPRDHVFQVNNFEALKTIQNQLREKGFA
notes: integrin alpha-M (CD11b) αI domain, Q146-A334; beads captured by the His-tag; also called αMI HA; HA αMI
Consider B1, for which the Kd in experiment [1] was 1.4 µM; in experiment [2], 11.6 µM. In addition, the binding result in experiment [3] is “binds”.

B2: CR4 αXI domain, wild type (WT) (domain or fragment, UniProt P20702 148-336, looked up)
chain: QEQDIVFLIDGSGSISSRNFATMMNFVRAVISQFQRPSTQFSLMQFSNKFQTHFTFEEFRRSSNPLSLLASVHQLQGFTYTATAIQNVVHRLFHASYGARRDAAKILIVITDGKKEGDSLDYKDVIPMADAAGIIRYAIGVGLAFQNRNSWKELNDIASKPSQEHIFKVEDFDALKDIQNQLKEKIFAI
notes: integrin alpha-X (CD11c) αI domain, Q148-I336; also called αXI WT; WT αXI
With B2, the figures for the Kd in experiment [1] and in experiment [2] were 30.4 µM and 55.5 µM, respectively.

B3: CR4 αXI domain, high-affinity (HA) variant p.I333G (domain or fragment, UniProt P20702 148-336, looked up)
chain: QEQDIVFLIDGSGSISSRNFATMMNFVRAVISQFQRPSTQFSLMQFSNKFQTHFTFEEFRRSSNPLSLLASVHQLQGFTYTATAIQNVVHRLFHASYGARRDAAKILIVITDGKKEGDSLDYKDVIPMADAAGIIRYAIGVGLAFQNRNSWKELNDIASKPSQEHIFKVEDFDALKDIQNQLKEKGFAI
notes: integrin alpha-X (CD11c) αI domain, Q148-I336; Addgene numbers tied to αLI and αXI by the order of the sentence; also called αXI HA; HA αXI
For the molecule B3, the values for the dissociation constant Kd in experiment [1] and in experiment [2] were 3.8 µM and 2.2 µM, respectively.

B4: CD11d αDI domain, high-affinity (HA) variant p.I332G (domain or fragment, UniProt Q13349 145-334, looked up)
chain: PHQEMDIVFLIDGSGSIDQNDFNQMKGFVQAVMGQFEGTDTLFALMQYSNLLKIHFTFTQFRTSPSQQSLVDPIVQLKGLTFTATGILTVVTQLFHHKNGARKSAKKILIVITDGQKYKDPLEYSDVIPQAEKAGIIRYAIGVGHAFQGPTARQELNTISSAPPQDHVFKVDNFAALGSIQKQLQEKGYA
notes: integrin alpha-D (CD11d) αI domain, P145-A334; plasmid bought from ATG:Biosynthetics; also called αDI HA; HA αDI
On to B4, for which the binding result in experiment [4] is “binds”.
